Results taken from the RNAGym collection of RNA variant scans (doi:10.1073/pnas.2313332121).

B1: TPR t1 (parent)
chain: GACCAAUCUGCCCUCAGAGCUCGAGAACAUCUUCGGAUGCAGAGGAGGCAGGCUUCGGUGGCGCGAUAGCGCCAACGUCCUCAACCUCCAAUGCAUCCCACCACAUGAUGAUGCCUGAAGAGCCUUGGUUUUUUG

Variants of: B1
Test: polymerase ribozyme fitness, log enrichment relative to wild type (log ratio); higher = more active; in vitro selection for triplet polymerase activity
How it was run: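 Each subunit of a heterodimeric triplet polymerase ribozyme was represented by a PCR-built, transcribed mutant library that underwent triplicate single-round in vitro selection with frozen incubation at −7 °C. Extended constructs were recovered by gel excision, streptavidin-bead capture and RT-PCR, and Illumina sequencing of input and output libraries kept genotypes with ≥10 input reads and ≥1 read per output. Fitness is the logarithm of genotype enrichment relative to wild-type enrichment, from inverse-variance-weighted replicate averages, with a logarithm base of 2.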

Point of comparison: GACCAAUCUGCUCUCAGAGCUCGAGAACAUCUUCGGAUGCAGAGGAGGCAGGCUUCGGUGGCGCGAUAGCGCAAACGUCCUCAACCUCCAAUGCAUGCCACCAUAUGAUGAUGCCUGAAGAGCCUUGGUUUUUUG, “polymerase ribozyme fitness (log ratio)” value -2.89. Against it:
- GACCAAUCUGCUCUCAGAGCUCGAGAACAUCUUCGGAUGCAGAGGAGGCAGGCUUCGGUGGCGCGAUAGCGCCAACGUGCUCAACCUCCAAUGCAUCCCACCACAUGAUGAUGCCUGAAGAGCCUUGGUUUUUUG — higher, -1.07
- GACCAAUCUGCUCUCAGAGCUCGAGAACAUCUUCGGAUGCAGAGGAGGCAGGCUUCGGUGGCGCGAUAGCGCCAACGUACUCAACCUCCAAUGCAUCCCACCACAUGAUGAUGCCUGAAGAGCCUUGGUUUUUUG — higher, -0.645
- GACCAAUCUGCUCUUAGAGCUCGAGAACAUCUUCGGAUGCAGAGGAGGAAGGCUUCGGUGGCGCGAUAGCGCCAACGUCCUCAACCUCCAAUGCAUCCCAUCACAUGAUGAUGCCUGAAGAGCCUUGGUUUUGUG — higher, -1.18
- GACCAAUCUGCUCUCAGAGCUCGAGAACAUCUUCGGAUGUAGAGGAGGCAGGCUUCGGUGGCGCGAUAGCGCCAACGUCCUCAACCUCCAAUGCAUCCCACCACAUGAUGAUGCCUGAAGAGCCUUGGUUUUUUG — higher, -0.543
- GACCAAUCUGCUCUCAGAGCUCGAGAACAUCUUCGGAUGCAGAGGAGGCAGGCUUCGGUGGCGCGAUAGCGCCAACGUGCUCAACCUCCAAUGCAUCCCAUCACAUGAUGAUGCCUGAAAAGCCUUGGUUUUUUG — higher, 0.377
- GACCAAUCUGCUCUCAGAGCUCGAGAACAUCUUCGGAUGCAGAGGAGGCAGGCUUCGGUGGCGCGAUAGAGCCAACGUCCUCAACCUGCAAUGCAUCCCACCACAUGAUGAUGCCUGAAGAGCCUUGGCUUUUUG — higher, -2.57
- GACCAAUCUGCUCUCAGAGCUCGAGAACAUCUUCGGAUGCAGAGGAGGCAGGCUUCGGUGGCGCGAUAGCGCUAACGUCCGGAACCUCCAAUGCAUCCCACCACAUGAUGAUGCCUGAAGAGACUUGGUUUUUUG — higher, 0.809
- GACCAAUCUGCUCUCAGAGGUCGAGAACAUCUUCGGAUGCAGCGGAGACAGGCUUCGGUGGCGCGAUAGCGCCAACGUCCUCAACCUCCAAUGCAUCCCACCACAUGAUGAUGCCUGAAGAGCCUUGGUUUUUUG — lower, -5.39
- GACCAAUCUGCUCUAAGAGCUCGAGAACAUCUUCGGAUGCAGAGGAGGCAGGCUUCGGUGGCGCGAUAGCGCCAACGUCCUCAACCUCCAAUGCAUCCCACCACAUGAUGAUGCCUGAAGAGCCGUGGUUUUAUG — higher, -1.18
- GACCAAUCUGCUCUCAGAGCUCGAGAACAUCUUCGGAUGCAGAGGAGGCAGGCUUCGGUGGCGCGAUAGCGUCAACGUCCUCAACCUCCAAUGCAUCCCACCACAUGAUGAUGCCUGAAGAGCCUUGUUUUUUUG — higher, -1.55
- GACCAAUCUGCUCUCAGAGCUCGAGAAUAUCUUCGGAUGCAGAGGAGGUAGGCUUCGGUGGCGCGAUAGCGCCAACGUCCUAAACCUCCAAUGCAUCCCACCACAUGAUGAUGCCUGAAGAGCCUUGGUUUUUUG — within 0.2 log units, -3.01
- GACCAAUCUGCUCUCAGAGCUCGAGAACAUCUUCGGAUGCAGAGGAGGCAGGCUUCGGUGGGGCGAUAGCGCCAACGUCCUCAACCUCCAAUGCAUCCCACCACAUGAUGAUGCCUGAAGAGCCUAGGUUUUUUG — within 0.2 log units, -2.76
- GACCAAUCUGCUCUCAGAGCUCGAGAACAUCUUCGGAUGCAGAGGAGGCAGGCUUCGGUGGCGCGAUAGCGUCAACGUCCUCAACCUCCAAUGCAUCCCCCCACAUGAUGAUUCCUGAAGAGCCUUAGUUUUUUG — lower, -3.91
- GACCAAUCUGCUCUCAGAGCUCGAGAACAUCUUCGGAUGCAGAGGAGGCAGGCUUCGGUGGCGCGAUAGCGGCAACGUCCUCAACCUCCAAUGCAUCCCACCACAUGAUGAUGCCUCAUGAGCCUUGGUUUUUUG — higher, -1
- GACCAAUCUGCUCUAAGAGCUCGAGAACAUCUUCGGCUGCAGAGGAGGCAGUCUUCGGUGGCGCGAUAGCGCCAACGUCCUCAACCUCCAAUGCAUCCCACCACAUGAUGAUGCCGGAAGAGCCUUGGUUUUUUG — lower, -3.09
- GACCAAUCUGCUCUCAGAGCUCGAGAACAUCUUCGGAUGCAGAGGAGGCAGGCUUCGGUGGUGCGAUAGCGCCAACGUCGUCAACCUCCAAUGCAUCCCACCACAUGAGGAUGACUGAAGAGCCUUGGUUUUUUG — lower, -6.17
- GACCAAUCUGCUCUCAGAGCUCGAGAAAAUCUUCGGAUGUAGAGGAGGCAGGCUUCGGUGGCGCGAUAGCGCUAACGUCCUCAACCUCCAAUGCAUCCCACCACAUGAUGAUGCCUGAAGAGCCUUGGUUUUUUG — lower, -4.89
- GACCAAUCUGCUCUCAGAGUUCGAGAACAUCUUCGGAUGCAGUGGAGGCAGGCUUCGGUGGCGCGAUAGCGUCAACGUCCUAAACCUCCAAUGCAUCCCACCACAUGAUGAAGGCUGAAGAGCCUUGGUUUUUUG — higher, -2.38
- GACCAAUCUGCUCUCAGAGCUCGAGAACAUCUUCGGAUGCAGAGGAGGCAGGUUUUGGUGGCGCGAUAGCGCCAACGUCCUCAACCUCCAAUGCAUCCCACCACAUGAUGAUGCCUGAAGAGCCUUGGUUUUUUG — higher, -0.154
- GACCAAUCUGCUCUGAGAGCUCGAGAACAUCUUCGGAUACAGAGGAGGCAGGCUUAGGUGGCGCGAUAGCGCCAACGUCCUCAACCUCCAAUGCAUCCCACCACAUGAUGAUGCCUGAAAAGCCUUGGUUUUUUG — higher, 0.312
- GACCAAUCUGCUUUCAGUGGUCGAGAACAUCUUCGGAUGCAGAGGAGGCAGGCUUCGGUGGCGCGAUAGCGCCAACGUCCUCAACCUCCAAUGCAUCCCACCACAUGAUGAUGCCUGAAGAGCCUUGGUUUUUUG — lower, -4.78
- GACCAAUCUGCUCUCAGAGCUCGAGAACAUCUUCGGAUGCAGAGGAGGCAGGAUUCGCUGGCGCGAUAGCGCCAACGUCCUCAACCUCCAAUGCAUCCCACCACAUGAUGAUGCCUGAUGAGCCUUGGUUUUUUG — higher, -0.505
- GACCAAUCUGCUCUCAGAGAUCGAGAACAUCUUCGGAUGCAGAGGAGGCAGGCUUCGGUGGCGCGAUAGCGCCACCGUCCUCAACCUCCAAUGCAUCCCACCACAUGAUGAUGACUUAAGAGCCUUGGUUUUUUG — lower, -5.53
- GACCAAUCUGCUCUCAGAGCUCGAGAACAUCUUCGGAUGCAGAGGAGGCAGGCUUCGGUGGCGCGAUAGCGGCAACGUCCUCAACCUCCAAUGCAUCCCACCACAUGAUGACGCCUGAAGAGCCUUGGUUUUUUG — higher, 1.25
- GACCAAUCUGCUCUCAGAGCUCGAGAACAUCUUCGGAUGCAGAGGAGGCAGGCUUCGGUGGCGCGAUAGCGUCAACGUCCUCAACCUCCAAUGCAACCCACCACAUGAUGAUGCUUGAAGAGCCUUGGUUUUUUG — higher, -1.92
- GACCAAUCUGCUCUCAGAGAUCGAGAACAUCUUCGGAUGCAGAGGAGGCAGGCUUCGGUGGCGCGAUAGCGCCUACGUCCUCAACCUCCAAUGCAUCCCACCACAUGAUGAUGCCUGAAGAGCCUUGAUUUUUUG — lower, -5.15
- GACCAAUCUGCUCUCAGAGCUCGAGAACAUCUUCGGAUGCAGAGGAGGCAGGCUUAGGUGGCGCGAUAGCGCCAACGUCCUCAACCUCCAAUGCAUCCCACCACAUGAUGAUGCCUGAAGAGCCUUGGUUUUUUG — higher, -0.454
- GACCAAUCUGCUCUCAGAGCUCGAGAACAUCUUCGGAUGCAGAGGAGGCAGGCUUGGGUGGCGCGAUAGCGCCAACGUCCUCAACCUCCAAUGCAUCCCACCACAUGAUGAUGCCUGAAGAGCCUUGGUUUUUUG — higher, -0.12
- GACCAAUCUGCUCUCAGAGCUCGAGAACAUCUUCGGAUGCAGAGGAGGCAGGCUUCGGUGGCGCGAUAGCGGCAACGUCCUCAACCUCCAAUGCAUCCCACAACAUGAUGAUGCCUGAAGAGCCUUGGUUUUUUG — higher, -2.37
- GACCAAUCUGCUCUCAGAGCUCGAGAACAUCUUGGGAUGCAGAGGAGGCAGGCUUCGGUGGCGCGAUAGCGCCAACGUCCUCAACCUCCAAUGCAUCCCACCACAUGAUGAUGCGUGAAGAGCCUUGGUUUUUUG — lower, -6.11
- GACCAAUCUGCUCUCAGAGCUCGAGAACAUCUUCGGAUGCAGAGGAGGCAGGCUUCGGUGGCGCGAUAGCGCCAACGUGCUCAACCUCAAAUGCAUCCCACCACAUGAUGAUGCCUGAAGCGCCUUGGUUUUUUG — lower, -3.82
- GACCAAUCUGCUCUCAGAGCUCGAGAACAUCUUCGGAUGCAGAGGAGGCAGGGUUCGGUGGCGCGAUAGCGCCAACGUCCUCAACCUCCAAUGCAUCCCACCACAUGAUGAUGCCUGAAGAGCCUUGGUUUUUUG — higher, -0.45
- GACCAAUCUGCUCUCAGAGUUCGAGAACAUCUUCGGAUGCAGAGGAGGCAGGCUUCGGUGGCGCGAUAGCGCCAACGUCCUCAACCUCCAUUGCAUCCCACCACAUGAUGAUGCCGGAAGAGCCUUGGUUUUUUG — lower, -4.44
- GACCAAUCUGCUCUUAGAGCUCGAGAACAUCUUCGGAUGCAGAGGCAGCAGGCUUCGGUGGCGCGAUACCGCCAACGUCCUCAACCUCCAAUGCAUCCCGUCACAUGAUGAUUCCUGAAGAGGCUUGGUUUUUUG — lower, -7.1
- GACCAAUCUGCUUUCAGAGCUCGAGAACAUCUUCGGAUGCAGAGGAGGCAGGCUUCGGUGGCGCGAUAGUCCCAACGUCCUCAACCUCCAAUGCAACCCACCACAUGAUGAGGCCUGAAGAGCCUUGGUUCUUUG — lower, -4
- GACCAAUCUGCUUUCAGAGCUCGAGAACAUCUUCGGAUGCAGGGGAGGCAGGCUUCGGUGACGCGAUAGCGCCAACGUCCUCAACCUCCAAUGCAUCCCACCACAUGAUGAUGCCUGAAGAGCCUUGGUGUUUUG — higher, -2.17
- GACCAAUCUGCUCUCAGAGCUCGAGAACAUCUUCGGAUGCAGAGGAGGCAGGCUUCGGUGGCGCGAUAGCGCCAACGUCCUCAACCUCCAAUGCAUCCCACCUCAUGAUGAUGCCUGAAGAGCCUUGGUUUUUUG — lower, -4.81
- GACCAAUCUGCUCUCAGAGCUCGAGAACAUCUUCGGAUGCAGAGGAGGCAGGCUUAGGUGGCGCGAUAGCGCCAACGUCCUCAACCUCCAAGGCAUCCCAGCACAUGAUGAUGCCUGAAGGGCCUUGGUUUUUUG — lower, -3.35
- GACCAAUCUGCUCUCAGAGCUCGAGAACAUCUUCGGAUGCAGAGGAGGCAGGAUUCGCUGGCGCGAUAGCGCCAACGUCCUGAACCUCCAAUGCAUCCCACCACAUGAUGAUGCCUGAAGAGCCUUGAUUUUUUG — higher, -2.46
- GACCAAUCUGCUCUCAGAGCUCGAGAACAUCUUCGGAUGCAGAGGAGGCAGGCUUCGGUGGGGCGAUAGCGCCAACGUCCUCAACCUCCAAUGCAUCCCACCACAUGAUGAUGCCUGAAGAGCCUUGGUUUUUUG — higher, -1.57
- GACCAAUCUGCUCUCAGAGCUCGAGAACAUCUUCGGAUGCAGAGGAGGCAGGCUUCGGUGGCGCGAUAGCGCCAACGUCCUCAUCCUCCAAUGCAUCCCACCACAUGAUGAUGCCUGAAGAGCCUUGGUUGUUUG — higher, -0.996
